These results are taken from the RNAGym collection of RNA variant scans (doi:10.7554/elife.90254).

B1: LINE1-full (parent)
chain: UACGUAGGUGGUUUUCCCCUGAUAGUGCUAAGGGGGCCUGGAAGUUUGGACUGGGCAGAGCUCAACACAGCGUGGCAAAGUGGCUGUGGCUAGACUGCCUCUCUGGAUUCCUCGUCACUCAGCAGGGCAUCUCUGAGAGAAAUGCC

The variants in this data set derive from B1. In words: self-cleavage, relative activity (ratio to wild type); higher = more cleavage; in vitro, sequencing; the parent is a self-cleaving ribozyme.
As to UACGUAGGUGGUUUUCCCGUGAUAGUGCUAGGGGGGCCUGGAAGUUUGGACUGGGCAGAGCUCAACACAGCGUGGCAAAGUGGCUGUGGCUAGACUGCCUCUCUGGAUUCCUCGUCACUCAGCAGGGCAUCUCUGAGAGAAAUGCC [C19G A31G], the self-cleavage is 0.73. For UACGUAGGUGGUUUUCCCGUGAUAGUGCUAAGGGGGCCUGGAAGUUUGGACUGGGUAGAGCUCAACACAGCGUGGCAAAGUGGCUGUGGCUAGACUGCCUCUCUGGAUUCCUCGUCACUCAGCAGGGCAUCUCUGAGAGAAAUGCC [C19G C56U], the self-cleavage was determined as 0.22. To UACGUAGGUGGUUUUCCCUUGAUAGUGCUAAGGGGGCCUGGAAGUUUGGACUGGGCAGAGCUCGACACAGCGUGGCAAAGUGGCUGUGGCUAGACUGCCUCUCUGGAUUCCUCGUCACUCAGCAGGGCAUCUCUGAGAGAAAUGCC [C19U A64G] belongs 0.25. To UACGUAGGUGGUUUUCCCUUGAUAGUGCUAAGGGGGCCUGGAAGUUUGGACUGGGCUGAGCUCAACACAGCGUGGCAAAGUGGCUGUGGCUAGACUGCCUCUCUGGAUUCCUCGUCACUCAGCAGGGCAUCUCUGAGAGAAAUGCC [C19U A57U] belongs 0.13; to UACGUAGGUGGUUUUCCCUUGAUAGUGCUAAGGGGGCCUGGAAGUUUGGACUGGGCGGAGCUCAACACAGCGUGGCAAAGUGGCUGUGGCUAGACUGCCUCUCUGGAUUCCUCGUCACUCAGCAGGGCAUCUCUGAGAGAAAUGCC [C19U A57G], 0.88; to UACGUAGGUGGUUUUCCCUUGAUAGUGCUAAGGGGGCCUGGAAGUUUGGACUGGGCAGAGCUCAACACAGCGUGGCAAAGUGGCUGUGGCUAGACUGCCUCUCUGGAUUCCUCGUCACUCAGCGGGGCAUCUCUGAGAGAAAUGCC [C19U A124G], 0.88. As to UACGUAGGUGGUUUUCCCUUGAUAGUGCUAAGGGGGCCUGGAAGUUUGGACUGGGCAGAGCUCAACACAGCGUGGCAAGGUGGCUGUGGCUAGACUGCCUCUCUGGAUUCCUCGUCACUCAGCAGGGCAUCUCUGAGAGAAAUGCC [C19U A79G], the self-cleavage is 0.97.

In the case of UACGUAGGUGGUUUUCCCUUGAUAGUGCUAAGGGGGCCUGGAAGUUUGGACUGGGCAGAGCUCAACACAGCGUGGCAAUGUGGCUGUGGCUAGACUGCCUCUCUGGAUUCCUCGUCACUCAGCAGGGCAUCUCUGAGAGAAAUGCC [C19U A79U], the self-cleavage worked out at 1.47. Consider UACGUAGGUGGUUUUCCCGUGAUAGUGCUAAGGGGGCCUGGAAGUUUGGACUGGGCAGAGCUCAACACAGCGUGGCAAAGUGGCCGUGGCUAGACUGCCUCUCUGGAUUCCUCGUCACUCAGCAGGGCAUCUCUGAGAGAAAUGCC [C19G U85C], for which the self-cleavage was determined as 0.24.

Turning to UACGUAGGUGGUUUUCCCUUGAUAGUGCUAAGGGGGCCUGGAAGUUUGGACUGGGCAGAGCUCAACACAGCGUGGCAAAGUGGCUGUGGCUAGACUGCCUCUCUGGAUUCCUCGUCACUCAGCAGGGCAUCUCUGUGAGAAAUGCC [C19U A136U], the self-cleavage came out at 1.41.

Take UACGUAGGUGGUUUUCCCUUGAUAGUGCUAAGGGGGCCUGGAAGUUUGGACUGGGCAGAGCUCAACACAGCGUGGCAAAGUGGCUGUGGCUAGGCUGCCUCUCUGGAUUCCUCGUCACUCAGCAGGGCAUCUCUGAGAGAAAUGCC [C19U A94G]: the self-cleavage worked out at 0.29. To UACGUAGGUGGUUUUCCCUUGAUAGUGCUAAGGGGGCCUGGAAGUUUGGACUGGGCAGAGCUCAACACAGCGUGGCAAAGUGGCUGUGGCUAGUCUGCCUCUCUGGAUUCCUCGUCACUCAGCAGGGCAUCUCUGAGAGAAAUGCC [C19U A94U] belongs 0.14. To UACGUAGGUGGUUUUCCCGUGAUAGUGCUAAGGGGGCCUGGAGGUUUGGACUGGGCAGAGCUCAACACAGCGUGGCAAAGUGGCUGUGGCUAGACUGCCUCUCUGGAUUCCUCGUCACUCAGCAGGGCAUCUCUGAGAGAAAUGCC [C19G A43G] belongs 0.31.

As for UACGUAGGUGGUUUUCCCUUGAUAGUGCUAAGGGGGCCUGGAAGUUUGGACUGGGCAGAGCUCAACACAGCGUGGCAAAGUGGCUGUGGCUAGACUGCCUCUCUGGAUUCCUCGUCACUCAGCAGGGCAUCUAUGAGAGAAAUGCC [C19U C133A], the self-cleavage was 0.59. To UACGUAGGUGGUUUUCCCUUGAUAGUGCUAAGGGGGCCUGGAAGUUUGGACUGGGCAGAGCUCAACACAGCGUGGUAAAGUGGCUGUGGCUAGACUGCCUCUCUGGAUUCCUCGUCACUCAGCAGGGCAUCUCUGAGAGAAAUGCC [C19U C76U] belongs 1.64; to UACGUAGGUGGUUUUCCCUUGAUAGUGCUAAGGGGGCCUGGAAGUUUGGACUGGGCAGAGCUCAACACAGCGUGGCAAAGUGGCUGUGGCUAGACUGCCUCUCUGGAUUCCUCGUCGCUCAGCAGGGCAUCUCUGAGAGAAAUGCC [C19U A117G], 1.49; to UACGUAGGUGGUUUUCCCUUGAUAGUGCUAAGGGGGCCUGGAAGUUUGGACUGGGCAGAGCUCAACACAGCGUGGCAAAGUGGCUGUGGCUAGACUGCCUCUCUGGAUUCCUCGUCACUCAGCAGGGCAUCUCUGAGAGAAGUGCC [C19U A142G], 1.06. On to UACGUAGGUGGUUUUCCCUUGAUAGUGCUAAGGGGGCCUGGAAGUUUGGACUGGGCAGAGCUCAACACAGCGUGGCGAAGUGGCUGUGGCUAGACUGCCUCUCUGGAUUCCUCGUCACUCAGCAGGGCAUCUCUGAGAGAAAUGCC [C19U A77G], for which the self-cleavage worked out at 1.68. To UACGUAGGUGGUUUUCCCUUGUUAGUGCUAAGGGGGCCUGGAAGUUUGGACUGGGCAGAGCUCAACACAGCGUGGCAAAGUGGCUGUGGCUAGACUGCCUCUCUGGAUUCCUCGUCACUCAGCAGGGCAUCUCUGAGAGAAAUGCC [C19U A22U] belongs 1.11; to UACGUAGGUGGUUUUCCCGUGAUAGUGCUAAGGGGGCCUGGAAGUUUGGACUGGGCAGAGCUCAACACAGCGUGGCAGAGUGGCUGUGGCUAGACUGCCUCUCUGGAUUCCUCGUCACUCAGCAGGGCAUCUCUGAGAGAAAUGCC [C19G A78G], 1.24.

With UACGUAGGUGGUUUUCCCUUGAUAGUGCUAUGGGGGCCUGGAAGUUUGGACUGGGCAGAGCUCAACACAGCGUGGCAAAGUGGCUGUGGCUAGACUGCCUCUCUGGAUUCCUCGUCACUCAGCAGGGCAUCUCUGAGAGAAAUGCC [C19U A31U], the self-cleavage amounted to 1.35. To UACGUAGGUGGUUUUCCCUUGAUAGUGCUAAGGGGGCCUGGAGGUUUGGACUGGGCAGAGCUCAACACAGCGUGGCAAAGUGGCUGUGGCUAGACUGCCUCUCUGGAUUCCUCGUCACUCAGCAGGGCAUCUCUGAGAGAAAUGCC [C19U A43G] belongs 0.62; to UACGUAGGUGGUUUUCCCUUGAUAGUGCUAAGGGGGCCUGGCAGUUUGGACUGGGCAGAGCUCAACACAGCGUGGCAAAGUGGCUGUGGCUAGACUGCCUCUCUGGAUUCCUCGUCACUCAGCAGGGCAUCUCUGAGAGAAAUGCC [C19U A42C], 0.69; to UACGUAGGUGGUUUUCCCAUGAUAGUGCUAAGGGGGCCUGGAAGUUUGGACUGGGCAGAGCUCAACACAGCGUGGCAAAGUGGCUGUGGCUAGACUGCCUCUCUGGAUUCCUCGUCACUCAGCAGGGCAUCUCCGAGAGAAAUGCC [C19A U134C], 0.67.

As for UACGUAGGUGGUUUUCCCUUGAUUGUGCUAAGGGGGCCUGGAAGUUUGGACUGGGCAGAGCUCAACACAGCGUGGCAAAGUGGCUGUGGCUAGACUGCCUCUCUGGAUUCCUCGUCACUCAGCAGGGCAUCUCUGAGAGAAAUGCC [C19U A24U], the self-cleavage is 1. To UACGUAGGUGGUUUUCCCGUGAUAGUGCUAAGGGGGCCUGGAAGUUUGGACUGGGCAGAGCACAACACAGCGUGGCAAAGUGGCUGUGGCUAGACUGCCUCUCUGGAUUCCUCGUCACUCAGCAGGGCAUCUCUGAGAGAAAUGCC [C19G U62A] belongs 0.03; to UACGUAGGUGGUUUUCCCUUGAUAGUGCUAAGGGGGCCUGGAAGUUUGGACUGGGCAGAGCUCAACACAGCGUGGCAAAGUGGCUGUGGCUAGACUGCCUCUCUGGAUUCCUCGUCACUCAGUAGGGCAUCUCUGAGAGAAAUGCC [C19U C123U], 1.58. Take UACGUAGGUGGUUUUCCCUUGAUAGUGCUAAGGGGGCCUGGAAGUUUGGACUGGGCAGAGCUCAACACAGCGUGGCAAAGUGGCUGUGGCUAGACUGCCUCUCUGGAUUCCUCGUCACUCAGCAGGGCAUCUCUGAGAGGAAUGCC [C19U A140G]: the self-cleavage stood at 0.92. As for UACGUAGGUGGUUUUCCCUUGAUAGUGCUAAGGGGGCCUGGAAGUUUGGACUGGGCAGAGCUCAACACAGCGUGGCAAAGUGGCUGUGGCUAGACUGCCUCUCUGGAUUCCUCGUCACUCAGCAGGGCAUCUCUGAGAGUAAUGCC [C19U A140U], the self-cleavage stood at 0.82. To UACGUAGGUGGUUUUCCCUUGAUAGUGCUAAGGGGGCCUGGAAGUUUGGACUGGGCAGAGCUCAACACAGCGUGGCAGAGUGGCUGUGGCUAGACUGCCUCUCUGGAUUCCUCGUCACUCAGCAGGGCAUCUCUGAGAGAAAUGCC [C19U A78G] belongs 1.24.

Take UACGUAGGUGGUUUUCCCUUGAUAGUGCUAAGGGGGCCUGGAAGUUUGGACUGGGCAGAGCUCAACACAGCGUGGCAAAGUGGCUGUGGCUAGACUGCCUCUCUGGAUUCCUCGUCACUUAGCAGGGCAUCUCUGAGAGAAAUGCC [C19U C120U]: the self-cleavage worked out at 1.25. UACGUAGGUGGUUUUCCCUUGAUAGUGCUAAGGGGGCCUGGAAGUUUGGACUGGGCAGGGCUCAACACAGCGUGGCAAAGUGGCUGUGGCUAGACUGCCUCUCUGGAUUCCUCGUCACUCAGCAGGGCAUCUCUGAGAGAAAUGCC [C19U A59G]: the self-cleavage was determined as 0.03. To UACGUAGGUGGUUUUCCCUUGAUAGUGCUAAGGGGGCCUGGAAGUUUGGGCUGGGCAGAGCUCAACACAGCGUGGCAAAGUGGCUGUGGCUAGACUGCCUCUCUGGAUUCCUCGUCACUCAGCAGGGCAUCUCUGAGAGAAAUGCC [C19U A50G] belongs 0.77. To UACGUAGGUGGUUUUCCCUUGAUAGUGCUAAGGGGGCCUGGAAGUUUGGACUGGGCAGAGCUCAACGCAGCGUGGCAAAGUGGCUGUGGCUAGACUGCCUCUCUGGAUUCCUCGUCACUCAGCAGGGCAUCUCUGAGAGAAAUGCC [C19U A67G] belongs 0; to UACGUAGGUGGUUUUCCCUUGAUAGUGCUAAGGGGGCCUGGAAGUUUGGACUGGGCAGAGCUCAACACAGCGUGGCAAAGUGGCUGUGGCUAGACUGCCUCUCUGGAUUCCUCGUCACUCCGCAGGGCAUCUCUGAGAGAAAUGCC [C19U A121C], 1.02; to UACGUAGGUGGUUUUCCCUUGAUAGUGCUAAGGGGGCCUGGAAGUUUGGACUGGGCAGAGCUCAACACAGCGUGGCAAAGUGGCUGUGGCUAGACUGCCUCUCUGGAUUCCUCGUUACUCAGCAGGGCAUCUCUGAGAGAAAUGCC [C19U C116U], 0.9.

For UACGUAGGUGGUUUUCCCGUGAUAGUGCUAAGGGGGCCUGGAAGUUUGGACUGGGCAGAGCUCAACACAGCGUGGCAAAGUGGCUGUGGCUAGACUGCCUCUCUGGAUUCCUCGUCUCUCAGCAGGGCAUCUCUGAGAGAAAUGCC [C19G A117U], the self-cleavage is 1.69. For UACGUAGGUGGUUUUCCCUUGAUAGUGCUAAGGGGGCCUGGAAGUUUGGACUGGGCAGAGCUCAACACAGCGUGGCAAAGUGGCUGUGGCUAGACUGCCUCUCUGGAUUCCUCGUCACUCAGCAGGGCAUCUCUGAGGGAAAUGCC [C19U A138G], the self-cleavage stood at 1.01.

UACGUAGGUGGUUUUCCCUUGAUAGUGCUAAGGGGGCCUGGAAGUUUGGACUGGGCAGAGCUCAACACAGCGUGGCAAAGUGGCUGUGGCUAGACUGCCUCUCUGGAUUCCUCGUCACUCAGCAGGGCAUCUCUGAGUGAAAUGCC [C19U A138U]: the self-cleavage came to 1.24.
